Measurements: patent publication US6683057

Molecular target: Gβγ (βγ subunit of the heterotrimeric G protein) (rabbit)
Assay: cell-based or functional assay

EGF activation of MAP kinase in cultured vascular smooth muscle cells (versus empty virus treated cells): -7% | LPA activation of MAP kinase in cultured vascular smooth muscle cells (versus empty virus treated cells): -58% | basal MAP kinase activity in cultured vascular smooth muscle cells (versus empty virus treated cells): 18% | serum activation of MAP kinase in cultured vascular smooth muscle cells (versus empty virus treated cells): -38%
Substance: βARKCT (βARK-1-(495-689) polypeptide; Met-Gly495-Leu689 of bovine β-adrenergic receptor kinase-1) (from UniProt P21146 495-689)
